US20220089663A1, “PROTEINS AND FLUOROPHORE-CONTAINING COMPOUNDS SELECTIVE FOR NaV1.7” (MEMORIAL SLOAN KETTERING CANCER CENTER, priority 2019, published 2022)

What was measured:
Test in all cases: cell-based or functional assay
[1] = molecular target: hNav1.2 (human) (UniProt Q99250)
[2] = molecular target: hNav1.4 (human) (UniProt P35499)
[3] = molecular target: hNav1.7 (human) (UniProt Q15858)
[4] = molecular target: hNav1.1 (human) (UniProt P35498)
[5] = molecular target: hNav1.6 (human) (UniProt Q9UQD0)
[6] = molecular target: hNav1.5 (human) (UniProt Q14524)
[7] = molecular target: hNav1.3 (human) (UniProt Q9NY46)

Substance	fold selectivity of hNav1.7 over this channel [1] [fold]	pIC50, whole-cell patch clamp (QPatch 16X) [1] [M]	fold selectivity of hNav1.7 over this channel [2] [fold]	pIC50, whole-cell patch clamp (QPatch 16X) [2] [M]	pIC50, whole-cell patch clamp (QPatch 16X) [3] [M]	recovery of currents after washout [3] [min]	fold selectivity of hNav1.7 over this channel [4] [fold]	pIC50, whole-cell patch clamp (QPatch 16X) [4] [M]	fold selectivity of hNav1.7 over this channel [5] [fold]	pIC50, whole-cell patch clamp (QPatch 16X) [5] [M]	fold selectivity of hNav1.7 over this channel [6] [fold]	pIC50, whole-cell patch clamp (QPatch 16X) [6] [M]	fold selectivity of hNav1.7 over this channel [7] [fold]	pIC50, whole-cell patch clamp (QPatch 16X) [7] [M]	IC50, automated whole-cell patch clamp [3] [nM]
synthetic Hsp1a (peptide)	28	6.52	> 100	< 6	7.98	10	40	6.39	> 100	< 6	> 100	< 6	> 100	< 6	
µ-theraphotoxin-Hsp1a (peptide)															13
